Assay results taken from PMC8930183, “Structure of the Pf12 and Pf41 heterodimeric complex of Plasmodium falciparum 6-cysteine proteins” (FEMS Microbes, 2022).

B1: Pf41 D1D2 (residues 21-368), untagged [Plasmodium falciparum] / octa-histidine tagged Pf12 D1D2 (residues 28-304) [Plasmodium falciparum] (parent complex)
chain 1: KSHKCDFTKEKYLLSGEKEVSCEIDANPSDDITFICPNKIDSLCFHTVNISKNINQNKSTMSIQDLLYGSVVYGNTLFISPYVRTNTPFYCFCNLDTVTIQKFLKINRFLKDDDELSEADVMKHLKGGNVSEAQADEYLNKALNRFKKMKDLSKFFNDQADNTTKLNLPKSLNIPNDILNYDVYNSSNNRNDIVVKDEVTNKQIISKRGIMSVFVRSNNNVIKGCDFGNNNKNYFSHPISVAGKVNNKVCKIQGKPGELVGFKCAFEENGKVEPPNCFDQVLHKNKVTDLKTLIPGYASYTNKHSSKYPYYLKIPHFVNEQYTIQCKCKSNNSQNEYTFELDIQPGES
chain 2: NLTCDFNDVYKLEFHPNQQTSVTKLCNLTPNVLEKVTIKCGSDKLNYNLYPPTCFEEVYASRNMMHLKKIKEFVIGSSMFMRRSLTPNKINEVSFRIPPNMMPEKPIYCFCENKKTITINGSNGNPSSKKDIINRGIVEIIIPSLNEKVKGCDFTTSESTIFSKGYSINEISNKSSNNQQDIVCTVKAHANDLIGFKCPSNYSVEPHDCFVSAFNLSGKNENLENKLKLTNIIMDHYNNTFYSRLPSLISDNWKFFCVCSKDNEKKLVFTVEASISS
B2: Pf12 D1D2 (residues 28-304), untagged [Plasmodium falciparum] / octa-histidine tagged Pf41 D1D2 (residues 21-368) [Plasmodium falciparum] (parent complex)
chain 1: B1 chain 2
chain 2: B1 chain 1

Variants of: B1
Test: BLI; mutant at 1000 nM, 500 nM, and 250 nM; binding to immobilised WT Pf12; parent: 100; read off a plot
For chain 1 E320A, the percent of parent was about 103 % WT.
Variant chain 1 F146A has a percent of parent of about 37 % WT.
For chain 1 F146L, the percent of parent was about 122 % WT.
chain 1 F317A showed a percent of parent of about 1 % WT.
chain 1 E347A gave a percent of parent of about 18 % WT.
Work on chain 1 H316A yielded a percent of parent of about 75 % WT.
With chain 1 N319A the percent of parent was about 36 % WT.
Work on chain 1 L143A yielded a percent of parent of about 1 % WT.
Work on chain 1 L139A yielded a percent of parent of about 4 % WT.

Variants of: B2
Test: BLI; mutant at 1000 nM, 500 nM, and 250 nM; binding to immobilised WT Pf41; parent: 100; read off a plot
chain 1 M81A was tested, and the percent of parent was about 22 % WT.
chain 1 F256A showed a percent of parent of about 4 % WT.
For chain 1 R82A, the percent of parent was about 9 % WT.
In the case of chain 1 R82E, the percent of parent is reported as about 0 % WT.
Work on chain 1 M79A yielded a percent of parent of about 27 % WT.
Work on chain 1 H207A yielded a percent of parent of about 116 % WT.
Work on chain 1 F214A yielded a percent of parent of about 12 % WT.
With chain 1 F214L the percent of parent was about 67 % WT.
Work on chain 1 Y237A yielded a percent of parent of about 2 % WT.
With chain 1 R96A the percent of parent was about 55 % WT.
chain 1 R96E was tested, and the percent of parent was about 3 % WT.
chain 1 R83A gave a percent of parent of about 38 % WT.
